Source: patent US5652133A, “Cloning and expression of the human macrophage inflammatory protein-1.alpha . α) /rantes receptor” (The United States of America as represented by the …, priority 1993, dated 1997)

T1: MIP-1α/RANTES receptor (Homo sapiens, UniProt P32246)
T1 construct: I.D. No. 1; expressed in transfected cells; host or cells: Xenopus laevis oocytes microinjected with receptor cRNA
T1 sequence (P32246 1-355): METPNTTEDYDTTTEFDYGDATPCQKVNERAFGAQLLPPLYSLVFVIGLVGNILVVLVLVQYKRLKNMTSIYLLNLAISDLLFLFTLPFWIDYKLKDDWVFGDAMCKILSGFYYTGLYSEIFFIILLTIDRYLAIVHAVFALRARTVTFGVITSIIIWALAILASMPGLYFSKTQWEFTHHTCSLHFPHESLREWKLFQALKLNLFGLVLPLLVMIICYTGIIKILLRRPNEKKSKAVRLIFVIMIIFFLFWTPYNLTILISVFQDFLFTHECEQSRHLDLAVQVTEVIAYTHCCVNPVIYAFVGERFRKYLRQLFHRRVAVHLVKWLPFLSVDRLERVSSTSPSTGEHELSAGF

B1: MIP-1β: recombinant human MIP-1β, diluted supernatant of Sf9 insect cells (clone pAT744) (protein, UniProt P13236 24-92, looked up)
C-C motif chemokine 4: APMGSDPPTACCFSYTARKLPRNFVVDYYETSSLCSQPAVVFQTKRSKQVCADPSESWVQEYVYDLELN
B2: C5a: C5a, ligand tested in the oocyte calcium efflux screen (protein, UniProt P01031 678-751, looked up)
C5a anaphylatoxin: TLQKKIEEIAAKYKHSVVKKCCYDGACVNNDETCEQRAARISLGPRCIKAFTECCVVASQLRANISHKDMQLGR
modifications: C5a anaphylatoxin
notes: C5a, ligand tested in the oocyte calcium efflux screen
B3: NAP-2: recombinant human neutrophil activating peptide-2 (Bachem Bioscience) (protein, UniProt P02775 59-128, looked up)
Neutrophil-activating peptide …: AELRCMCIKTTSGIHPKNIQSLEVIGKGTHCNQVEVIATLKDGRKICLDPDAPRIKKIVQKKLAGDESAD
modifications: Neutrophil-activating peptide 2

Tests used:
MIP-1α/RANTES receptor [1] = target: T1, MIP-1α/RANTES receptor; test: Calcium efflux assay in Xenopus oocytes injected with MIP-1α/RANTES receptor cRNA; type: cell-based; details: for responsiveness of cRNA-injected oocytes to ligand (calcium efflux): oocytes injected with 10 ng receptor cRNA, IL-8, GRO-α, NAP-2 at 500 nM, MIP-1α/MIP-1β Sf9 supernatant 1:5, panel C ligands at 250 nM
Procedure: (§1) The materials and methods used for the calcium efflux assay were as described in Murphy, et al., J. Immunol. 145:2227-2234 (1990). Adult female laboratory bred Xenopus laevis (Nasco, Fort Atkinson, Wis.) were maintained at 19° C. to 22° C. in a light-dark cycle of 12 h per phase. The frogs were anesthetized and ovarian lobes were resected and defolliculated in OR2 solution (82.5 mM NaCl, 1 mM MgCl2, 2.4 mM KCl, 5 mM HEPES, pH 7.5) containing 2 mg/ml collagenase for 2 h on a rotary shaker. Stage V-VI oocytes were transferred to ND96 solution (96 mM NaCl, 2 mM KCl, 1.8 mM CaCl2, 1 mM MgCl2, 2.4 mM sodium pyruvate, penicillin 100 U/ml, streptomycin 100 μg/ml, 5 mM HEPES, pH 7.4 to 7.5).
(§2) After 1-2 days, oocytes were microinjected with RNA samples in a total volume of 50 nl per oocyte and were then incubated in ND96 solution at 20° C. to 23° C. for 3 to 5 days. Oocytes were then incubated in 500 μl of OR2 medium containing ^45 Ca^2+ [50 μCi/ml (ICN Biomedicals, Costa Mesa, Calif.)] for 3 hours at 20° C. After ten washes with ND96 medium, individual oocytes were stimulated with ligand in wells of a 96-well tissue culture plate containing 100 μl of ND96 medium. Three 100 μl samples of the incubation medium were collected and analyzed by liquid scintillation counting: a) the final 100 μl wash (20 min) before application of ligand; b) fluid containing the stimulus, removed after a 20 min incubation with the oocyte; and c) the oocyte solubilized in SDS (1%) in medium 20 min after stimulation. Data are presented as the mean±standard error of the mean (SEM) of the percent of loaded ^45 Ca^2+ that was released by individual oocytes in response to the stimulus, or [(b-a).div.(b+c)]×100.
Ligands were all human recombinant material obtained from the following sources: MIP-1α (R and D Systems, Minneapolis, Minn.); IL-8, RANTES, and MCAF (Genzyme, Cambridge, Mass.); NAP-2 (Bachem Bioscience, Philadelphia, Pa.); GRO-α (a gift from M. P. Beckmann, S. Lyman and D. Cerretti). MIP-1α and MIP-1β used in a ligand screen was a gift of U. Siebenlist (NIAID, Bethesda, Md.) and were used as a diluted supernatant of Sf9 insect cells expressing immunoreactive recombinant human MIP-1α (from clone pAT464) or MIP-1β (from clone pAT744) that was prepared as described in Zipfel et al. J. Immunol. 142:1582-1590 (1989) and Zipfel et al. Lymph. Cyto. Res. 11:141-148 (1992). All proteins were diluted from aqueous stock solutions or culture supernatants into ND96 oocyte media (96 mM NaCl, […], pH 7.45) containing 0.1% bovine serum albumin.
Five days after injection with 10 ng of either MIP-1α/RANTES receptor cRNA (closed bars) or IL-8 receptor B cRNA (open bars), oocytes were stimulated with recombinant human IL-8, GRO-α or NAP-2 at 500 nM, or a 1:5 dilution of an Sf9 supernatant containing recombinant human MIP-1α or MIP-1β. […] Oocytes injected with 50 ng HL-60 RNA (closed circle) or 10 ng of MIP-1α/RANTES receptor cRNA (open circle) were stimulated with the indicated concentration of recombinant human MIP-1α. […] Oocytes were injected with either HL-60 RNA (open bars) or MIP-1α/RANTES receptor cRNA (closed bars) and stimulated with the indicated ligand at 250 nM. In panels A-C, the data derive from 5-8 replicate determinations per point.

IL-8 receptor B [2] = test: Calcium efflux assay in Xenopus oocytes injected with IL-8 receptor B cRNA; type: cell-based, human; details: oocytes injected with 10 ng IL-8 receptor B cRNA; 1:5 dilution of Sf9 supernatant
Procedure: as §1
as §2, with “After ten washes with ND96 medium, individual oocytes were stimulated with ligand in wells of a 96-well tissue culture plate containing 100 μl of ND96 medium.” left out, “Data are presented as the mean±standard error of the mean (SEM) of the percent of loaded ^45 Ca^2+ that was released by individual oocytes in response to the stimulus, or [(b-a).div.(b+c)]×100.” left out

IL-8 receptor B [3] = test: Radioligand binding of 125I-MIP-1α to oocytes expressing IL-8 receptor B; parameters: species or system human; details: single oocytes, 30 min on ice
MIP-1α/RANTES receptor [4] = target: T1, MIP-1α/RANTES receptor; test: Radioligand binding of 125I-MIP-1α to oocytes injected with MIP-1α/RANTES receptor cRNA
Procedure: Carrier free recombinant human MIP-1α 10 μg (Genzyme, Cambridge, Mass.) was labeled using 5 mCi Na^125 I (Amersham, Arlington Heights, Ill.) in 100 μl 0.2M sodium phosphate, pH 7.2 and 50 μl reconstituted Enzymobeads (BioRad, Richmond, AC). The reaction was started using 25 μl 1% β-D-glucose and allowed to continue for 20 minutes. Labeled sample was separated from the free iodine using a NAP-5 column (Pharmacia LKB, Piscataway, N.J.) which had been previously rinsed with 1% bovine serum albumin in 0.2M sodium phosphate, pH 7.2. Labeled material was collected from the column and analyzed on a 14% acrylamide gel. Single oocytes were incubated with ^125 I-MIP-1α for 30 min on ice in 10 μl of binding buffer (Hanks' balanced salt solution with 25 mM HEPES, 1% bovine serum albumin, pH 7.4). Unbound ligand was removed by centrifugation of the oocyte through 300 μl of F50 silicone fluid (General Electric, Waterford, N.Y.). The tubes were quickly frozen and gamma emissions from the amputated tips were counted.
Binding of ^125 I-labeled MIP-1α to oocytes injected with MIP-1α/RANTES receptor cRNA. (A) Total (closed circles) and non-specific binding (open circles) was determined by incubating oocytes injected with MIP-1α/RANTES receptor cRNA with the indicated concentration of ^125 I-labeled MIP-1α in the absence or presence of a 100 fold molar excess of unlabeled MIP-1α, respectively. […]

Molecule	responsiveness of cRNA-injected oocytes to ligand (calcium efflux) (MIP-1α/RANTES receptor [1])	also measured
Nc1ncnc2c1ncn2[C@@H]1O[C@H](COP(=O)(O)OP(=O)(O)OP(=O)(O)O)[C@@H](O)[C@H]1O [ATP, reference compound]	inactive	–
CCCCC[C@H](O)/C=C/[C@H]1[C@H](O)CC(=O)[C@@H]1C/C=C\CCCC(=O)O [Prostaglandin E2, reference compound]	inactive	–
O=c1ccn([C@@H]2O[C@H](COP(=O)(O)OP(=O)(O)OP(=O)(O)O)[C@@H](O)[C@H]2O)c(=O)[nH]1 [UTP, reference compound]	inactive	–
CSCC[C@H](NC=O)C(=O)N[C@@H](CC(C)C)C(=O)N[C@@H](Cc1ccccc1)C(=O)O [f-met-leu-phe, reference compound]	inactive	–
NCCc1c[nH]cn1 [histamine, reference compound]	inactive	–
CCCCCCCCCCCCCCCCOCC(COP(=O)([O-])OCC[N+](C)(C)C)OC(C)=O (stereo not shown) [platelet activating factor, reference compound]	inactive	–
GROα: recombinant human GROα/melanoma growth stimulatory activity, α chemokine	not	–
IL-8: recombinant human interleukin-8, α chemokine (Genzyme)	not	–
MCP-1: human recombinant Monocyte Chemoattractant Protein-1 (MCAF, Genzyme)	not	–
MIP-1α: recombinant human Macrophage Inflammatory Protein-1α, β chemokine (R and D Systems; or Sf9 supernatant)	acquired responsiveness	activation of IL-8 receptor B (calcium efflux) (IL-8 receptor B [2]): Neither MIPα nor MIP-1β activated; concentration at which the first phase of the oocyte response appeared to saturate (MIP-1α/RANTES receptor [1]; calcium efflux, first phase): ~100 NM; concentration at which the second phase of the oocyte response did not reach a plateau (MIP-1α/RANTES receptor [1]; calcium efflux, second phase): > 5 µM
RANTES: recombinant human β chemokine, Regulated on Activation, Normal T Expressed and Secreted (Genzyme)	acquired responsiveness	EC50 (MIP-1α/RANTES receptor [1]; calcium efflux, oocytes injected with receptor cRNA): ~50 nM
^125 I-MIP-1α: carrier free recombinant human MIP-1α (Genzyme) labeled with Na125I	–	specific binding to oocytes expressing IL-8 receptor B (IL-8 receptor B [3]): did not bind specifically; specific binding to oocytes expressing IL-8 receptor B (IL-8 receptor B [3]; listed as 125 I-labeled MIP-1α): undetectable; threshold for detection of specific binding (MIP-1α/RANTES receptor [4]): the same as that required for stimulation of calcium efflux
B1	not	activation of IL-8 receptor B (calcium efflux) (IL-8 receptor B [2]): Neither MIPα nor MIP-1β activated
B2	inactive	–
B3	not	–
